Measured values from publication PMC3396432.

Biological target: Cav1(62-178) P132L (UniProt Q03135)
Assay: AUC

Kd: < 15 nM
stoichiometry N: 2
Substance: Cav1(62-178) P132L (from UniProt Q03135 62-178) (domain or fragment)
